Data on two molecules can be found in US12286461B2, “Recombinant fused polypeptide and use thereof” (priority 2019, dated 2025).

Test [1] has as its system Mycoplasma pneumoniae. Kind of test: Mouse pneumonia model, mycoplasma pneumonia. The format is in vivo. The settings on record: BALB/C mouse pneumonia model, nasal drip; average ± standard deviation. The text has this:
(§1) A mouse pneumonia model was successfully established by using a nasal drip method. BALB/C mice with a body weight of 18-24 g were selected, and then anesthetized with ether on day 0, day 1 and day 2, respectively, prepared Streptococcus pneumoniae bacteria solution, adenovirus concentrated solution, Mycoplasma pneumoniae, Chlamydia pneumoniae, protozoa and pneumonia fungi were slowly dropped into the nasal cavity of the mice, so that the bacteria solutions entered the trachea and bronchi, and the bacteria solutions were prevented from flowing into the esophagus during the operation to avoid inactivation of the bacteria solutions, so that the mouse pneumonia model was established. After the model was successfully established, the recombinant fused polypeptides according to the present invention were administered.

Test [2] concerns mice with myocardial fibrosis. Kind of test: Isoprenaline-induced myocardial fibrosis animal model. The format is in vivo. The settings on record: BALB/c mice, isoprenaline 5 mg/kg s.c. daily for 7 days, 12 mg/kg s.c. (Table 5), after the 8th day, FIG. 5. The protocol:
In the model group, the experimental mice were injected with isoprenaline (ISO) (5 mg/kg) subcutaneously on the back of the mice every day for 7 consecutive days, and the mice were injected with normal saline subcutaneously (200 μL/mouse) every day. In the blank group, normal saline was injected subcutaneously (200 μL/mouse) every day. […] After the 8th day, blood was taken and was centrifuged, the supernatant was taken, and the content of TGF-β1 in serum was detected.

Test [3] concerns Chlamydia pneumoniae. Nature of the test: Mouse pneumonia model, chlamydia pneumonia. The format is in vivo. The settings on record: BALB/C mouse pneumonia model, nasal drip; average ± standard deviation.
From the text: as §1

Test [4] relates to SD rats with renal fibrosis. Kind of test: Renal fibrosis animal model (ureter ligation). The format is in vivo. The settings on record: 6 mg/kg s.c. once every five days, after 15 days. The protocol:
A renal fibrosis animal model was established. SD rats were anesthetized with 4% chloral hydrate, injected with 1 mL/100 g intraperitoneally, fixed to an operation board, and sterilized in an operation area for further use. […] Muscular layers and abdominal walls were sewed layer by layer, the suture was disinfected with alcohol. After SD rats woke up, the rats were put into a cage for feeding. In the blank group, ureter was not ligated, and other steps were the same.
Then, the animals fell into a blank group, a model group, and recombinant fused polypeptide administration groups, and the administration was started on the second day after the operation, and was performed for 15 days. After administration for 15 days, blood was taken and supernatant was taken to detect the content of TGF-β1 in serum.

For test [5], the system named is pneumonia fungi. Kind of test: Mouse pneumonia model, fungal pneumonia. The settings on record: BALB/C mouse pneumonia model, nasal drip; average ± standard deviation. The format is in vivo.
From the text: as §1

Test [6] relates to mice with bleomycin-induced skin fibrosis. Kind of test: Bleomycin-induced skin fibrosis model. The settings on record: C57/BL mice, bleomycin 10 μg/mL s.c. daily for 28 days, 10 mg/kg s.c. once every five days, 6 times, FIG. 6. The format is in vivo, C57/BL black mice. The protocol:
Bleomycin (10 μg/mL) was injected subcutaneously every day for 28 days to form skin fibrosis. During the modeling period, the administration groups were given drugs for treatment. After modeling, the mice were killed on the next day, and the skin tissue of the mouse back was taken to detect the content of HYP in the skin tissue. [table]

The test system of test [7] is pulmonary infections. Kind of test: Mouse pneumonia model, pneumonia caused by pulmonary infections. The format is in vivo, BALB/C mice. The settings on record: BALB/C mouse pneumonia model, nasal drip, average ± standard deviation.
From the text: as §1

The test system of test [8] is adenovirus. Kind of test: Mouse pneumonia model, viral pneumonia. The format is in vivo. The settings on record: BALB/C mouse pneumonia model, nasal drip; average ± standard deviation.
From the text: as §1

Test [9] concerns Streptococcus pneumoniae. Kind of test: Mouse pneumonia model, bacterial pneumonia. The format is in vivo. The settings on record: BALB/C mouse pneumonia model, nasal drip; average ± standard deviation.
From the text: as §1

Test [10] concerns SD rats with CCl4-induced hepatic fibrosis. Nature of the test: CCl4-induced hepatic fibrosis animal model. The format is in vivo. The settings on record: 40% CCl4 i.p. twice a week for 8 weeks, fused polypeptides 6 mg/kg s.c. once every five days. The protocol: Modeling was performed on the rats. Each group other than the blank group was injected with 40% CCl4 intraperitoneally twice a week, the first injection was performed at 3 mL/kg, and then injection was performed at 2 mL/kg. Modeling was performed for 8 weeks to induce hepatic fibrosis. After the intraperitoneal injection of CCl4 for the fourth time, the drugs were administered according to Table 3. After induction for 8 weeks, the administration was stopped. The SD rats were dissected the next day, and blood was taken. The liver tissue was stored in a refrigerator at −80° C. for further use. The expression of HYP in the hepatic tissue of rats was detected. [table]

Test [11] relates to SD rats with bleomycin-induced pulmonary fibrosis. Nature of the test: Bleomycin-induced pulmonary fibrosis animal model. The format is in vivo. The settings on record: for Survival rate (%): bleomycin 5 mg/kg intratracheal, dosage 10 mg/kg (Table 2), administration cycle 15 days from day 7 after modeling; for hydroxyproline (HYP) content in lung tissue / content of TGF-β1 in serum, difference from the model group: bleomycin pulmonary fibrosis, after 15 days; for hydroxyproline (HYP) content in lung tissue: 10 mg/kg s.c. once every five days, FIG. 1; for content of TGF-β1 in serum, difference from the model group: fused polypeptides 10 mg/kg s.c. once every five days, nintedanib 25 mg/kg intragastric once a day. The protocol:
SD rats were anesthetized by intraperitoneal injection of 4% chloral hydrate with a concentration of 1 mL/100 g. After anesthesia, the rats were fixed and their necks were disinfected by using cotton with 75% alcohol. The skin of the rat neck was longitudinally cut with scissors, and the fascia and muscle were longitudinally bluntly torn with tweezers to expose the trachea. A syringe was inserted into the trachea to inject 5 mg/kg bleomycin, while a blank group was injected with an equal amount of normal saline. Then a rat plate was quickly erected and rotated, the rats' breathing was observed, the neck wound was sterilized after rotation and was sewn, and an amoxicillin anti-inflammatory drug was sprinkled on the suture. After the operation, the rats were put back into a dry and clean cage for resting, waiting for awakening. The rats were awakened after about 1-2 hours, and then fed normally. On the 7th day after modeling, modeling group animals randomly fell into a model group, a Nintedanib positive drug group, recombinant fused polypeptide 1, 2, 3 and 4 dosage groups, and a normal control group, and the groups were administered separately for an administration cycle of 15 days. Living situations of rats were observed every day and their weights were weighed. After administration for 15 days, the eyeballs were removed and blood was taken, the rats were dissected, and lungs were taken. The content of TGF-β1 in serum and the content of HYP in lung tissues were detected.

The test system of test [12] is protozoa. Nature of the test: Mouse pneumonia model, protozoal pneumonia. The format is in vivo. The settings on record: BALB/C mouse pneumonia model, nasal drip; average ± standard deviation.
From the text: as §1

[13] abbreviates: listed as recombinant fused polypeptide II.
Setting [14] is: listed as recombinant fused polypeptide III.

B1: Acetyl-SDKPGGGGTSLDASIIWAMMQNGGGGLSKLGGGGSGGGGSGGGGSPRCWRGEGGGGIVRRADRAAVPGGGGRGD (protein)
chain: SDKPGGGGTSLDASIIWAMMQNGGGGLSKLGGGGSGGGGSGGGGSPRCWRGEGGGGIVRRADRAAVPGGGGRGD
modifications: N-acetyl
notes: Recombinant fused polypeptide Y-linker1-X expressed in 293 cells
On to B1, for which the “Inhibitory effect, Mycoplasma pneumonia” value in [1] came out at 45.72 ± 5.69. The “content of TGF-β1 in serum, difference from the model group” value was “highly significantly different from the model group (***P<0.001)” in test [2] (listed as recombinant fused polypeptide 2); “can lower the TGF-β1 content” in test [2] (setting [13]); “highly significantly different from the model group (***P<0.001)” in test [4] (FIG. 4, listed as recombinant fused polypeptide 2, 6 mg/kg); “can lower the TGF-β1 content” in [4] (FIG. 4, listed as recombinant fused polypeptide II, 6 mg/kg); “highly significant different from the model group (***P<0.001)” in test [11] (FIG. 2, listed as fused polypeptide 2); “can lower the TGF-β1 content” in test [11] (FIG. 2, listed as recombinant fused polypeptide II). In addition, the “Inhibitory effect, Chlamydia pneumonia” value in [3] was 50.21 ± 4.85. The “Inhibitory effect, Fungal pneumonia” value in [5] is listed as 63.07 ± 3.02. For the same molecule, the “content of HYP in skin tissue, difference from the model group” value in test [6] (listed as recombinant fused polypeptide 2, 10 mg/kg) was “highly significantly different from the model group (***P<0.001)”; in test [6] (listed as recombinant fused polypeptide II, 10 mg/kg), “can lower the hydroxyproline content”. The “Inhibitory effect, Pneumonia caused by pulmonary infections” value was 65.87 ± 3.19 in [7] and “inhibitory effect” in [7] (setting [13]). Moreover, the “Inhibitory effect, Viral pneumonia” value in [8] is recorded as 58.08 ± 5.27. In addition, the “Inhibitory effect, Bacterial pneumonia” value in test [9] was 49.18 ± 5.32. The “content of HYP in liver tissue, difference from the model group” value in [10] (FIG. 3, listed as Recombinant fused polypeptide 2) is “highly significantly different from the model group (***P<0.001)”; in test [10] (FIG. 3, listed as recombinant fused polypeptide II), “can lower the HYP content”. In addition, the “Survival rate (%)” value is listed as 85.7% in test [11] and “equivalent to that of the positive drug group” in test [11] (listed as fused polypeptide 2). The “hydroxyproline (HYP) content in lung tissue” value in [11] is given as “can lower the hydroxyproline content”. For the same molecule, the “Inhibitory effect, Protozoal pneumonia” value in test [12] came to 66.13 ± 5.36.

B2: PRCWRGEGGGGIVRRADRAAVPGGGGRGDAEAAAKEAAAKEAAAKEAAAKKSDKPGGGGTSLDASIIWAMMQNGGGGLSKL (protein)
chain: PRCWRGEGGGGIVRRADRAAVPGGGGRGDAEAAAKEAAAKEAAAKEAAAKKSDKPGGGGTSLDASIIWAMMQNGGGGLSKL
notes: Recombinant fused polypeptide X-linker2-Y expressed in 293 cells
Turning to B2, the “Inhibitory effect, Mycoplasma pneumonia” value in test [1] is 45.53 ± 4.33. Besides, the “content of TGF-β1 in serum, difference from the model group” value in test [2] (listed as recombinant fused polypeptide 3) is “significantly different from the model group (**P<0.01)”; in test [2] (setting [14]) it was “can lower the TGF-β1 content”; in [4] (FIG. 4, listed as recombinant fused polypeptide 3, 6 mg/kg), “highly significantly different from the model group (**P<0.01)”; in test [4] (FIG. 4, listed as recombinant fused polypeptide III, 6 mg/kg) it was “can lower the TGF-β1 content”; in test [11] (FIG. 2, listed as fused polypeptide 3), “highly significantly different from the model group (**P<0.01)”; in [11] (FIG. 2, listed as recombinant fused polypeptide III), “can lower the TGF-β1 content”. Besides, in test [3], the “Inhibitory effect, Chlamydia pneumonia” value was determined as 55.78 ± 4.32. Moreover, in test [5], the “Inhibitory effect, Fungal pneumonia” value was found to be 65.98 ± 3.64. The “content of HYP in skin tissue, difference from the model group” value in test [6] (listed as recombinant fused polypeptide 3, 10 mg/kg) is reported as “highly significantly different from the model group (**P<0.01)”; in [6] (listed as recombinant fused polypeptide III, 10 mg/kg) it was “can lower the hydroxyproline content”. The “Inhibitory effect, Pneumonia caused by pulmonary infections” value in [7] was 58.81 ± 4.10; in test [7] (setting [14]) it was “inhibitory effect”. Further, the “Inhibitory effect, Viral pneumonia” value in test [8] stood at 69.54 ± 7.49. The “Inhibitory effect, Bacterial pneumonia” value in [9] turned out to be 48.79 ± 7.26. The “content of HYP in liver tissue, difference from the model group” value in test [10] (FIG. 3, listed as Recombinant fused polypeptide 3) was “highly significantly different from the model group (***P<0.001)”; in test [10] (FIG. 3, listed as recombinant fused polypeptide III) it was “can lower the HYP content”. The figures for the “Survival rate (%)” value in [11] and in test [11] (listed as fused polypeptide 3) were 85.7% and “equivalent to that of the positive drug group”, respectively. Further, in [11], the “hydroxyproline (HYP) content in lung tissue” value is given as “can lower the hydroxyproline content”. In [12], the “Inhibitory effect, Protozoal pneumonia” value is 68.29 ± 4.70.
